Reference: patent US6008320A, “Elastase inhibitor and process for preparing the same” (Korea Advanced Institute of Science and Technology, priority 1995, dated 1999)
Entries after “also recorded” stand apart in the source; their conditions may differ.

Tests used:
pepsin = pepsin (Homo sapiens, UniProt P0DJD8); assay: Specificity of inhibiting activity: pepsin; format: biochemical
Method: (§1) The specific activities of Guamerin on the other types of proteases beside elastase, were studied; and, it was determined that: while it has no effect on papain, pepsin, thrombin, and factor Xa, Guamerin had about 15% of inhibiting-activity against trypsin, chymotrypsin, and subtilisin. […] In FIG. 4, HL-elastase and PP-elastase represent the ones isolated from human leukocyte and porcine pancreas, respectively.

papain = target: T1, papain (Carica papaya, UniProt P00784); assay: Specificity of inhibiting activity: papain; format: biochemical
T1 sequence (P00784 134-345): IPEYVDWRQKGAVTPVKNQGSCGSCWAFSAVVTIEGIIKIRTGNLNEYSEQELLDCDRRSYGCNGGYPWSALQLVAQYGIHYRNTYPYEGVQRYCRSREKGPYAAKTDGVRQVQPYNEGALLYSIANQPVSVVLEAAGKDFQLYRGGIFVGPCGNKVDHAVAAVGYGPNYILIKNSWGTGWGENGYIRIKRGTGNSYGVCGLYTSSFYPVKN
Method: as §1

factor Xa = factor Xa (Homo sapiens, UniProt P00742); assay: Specificity of inhibiting activity: factor Xa; format: biochemical
Method: as §1

trypsin = target: T2, trypsin (Bos taurus, UniProt P00760); assay: Specificity of inhibiting activity: trypsin; format: biochemical
T2 construct: gene PRSS1
T2 sequence (P00760 24-246): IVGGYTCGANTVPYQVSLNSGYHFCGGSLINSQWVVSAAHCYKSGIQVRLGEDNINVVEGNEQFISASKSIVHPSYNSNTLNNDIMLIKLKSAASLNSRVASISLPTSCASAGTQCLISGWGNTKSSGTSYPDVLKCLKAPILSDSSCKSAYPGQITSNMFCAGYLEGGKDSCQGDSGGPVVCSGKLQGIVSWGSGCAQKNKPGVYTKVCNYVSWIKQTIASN
Method: as §1

subtilisin = assay: Specificity of inhibiting activity: subtilisin; format: biochemical
Method: as §1

elastase [1] = assay: Specificity of inhibiting activity: elastase; format: biochemical; details: FIG. 4: HL-elastase (human leukocyte) and PP-elastase (porcine pancreas)
Method: as §1

chymotrypsin = chymotrypsin (Bos taurus, UniProt P00766); assay: Specificity of inhibiting activity: chymotrypsin; format: biochemical
Method: as §1

[2] = Heat stability of Guamerin activity; format: physicochemical; details: 40° C. to 100° C. at an interval of 10° C., 15 min
Method: To investigate the effect of heat on the activity of Guamerin, it was subjected to heating condition at an interval of 10° C. ranging from 40° C. to 100° C. for 15 min(see: FIG. 6).

elastase [3] = assay: Elastase-inhibiting activity assay (decrease in ρ-nitroaniline degrading activity of elastase); format: biochemical; details: 1 U = amount of inhibitor that decreases the degradation of 1 μM ρ-nitroaniline by elastase per minute; 37° C., 50 min
Method: The activity of the purified Guamerin was assayed as follows: 50 μl of elastase-containing solution(0.37 mg/ml) and 500 μl of 1 mM .rho.-nitroaniline were mixed together, and 50 μl of each of fractions obtained in the course of purification was added to the mixture, and left to react at 37° C. for 50 min. The absorbance(O.D.) at 440 nm calculated in terms of the hydrolysed .rho.-nitroaniline, was measured. O.D. values of the control and the active fractions were compared, and the activity of Guamerin was determined, based on the decrease in .rho.-nitroaniline degradating activity of elastase.
Protein was quantitatively assayed by Bradford method(see: Bradford, M. M., Anal. Biochem., 72: 248-254(1976)). In this regard, one unit(1 U) was defined as the amount of inhibitor that decreases the degradation of 1 μM .rho.-nitroaniline by elastase per minute.

elastase [4] = target: T3, elastase (Homo sapiens, UniProt P08246); assay: Determination of inhibition constant and inhibition mechanism; format: biochemical; details: FIG. 5
T3 sequence (P08246 30-247 limits assumed): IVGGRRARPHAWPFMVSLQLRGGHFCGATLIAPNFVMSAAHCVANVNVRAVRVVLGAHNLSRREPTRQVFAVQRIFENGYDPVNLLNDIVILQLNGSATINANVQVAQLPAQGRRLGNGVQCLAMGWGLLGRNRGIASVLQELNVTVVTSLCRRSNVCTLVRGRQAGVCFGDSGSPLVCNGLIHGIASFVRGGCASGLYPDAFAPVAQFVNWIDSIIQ

thrombin = thrombin (Homo sapiens, UniProt P00734); assay: Specificity of inhibiting activity: thrombin; format: biochemical
Method: as §1

elastase [5] = target: T4, elastase (Homo sapiens, UniProt P08246); details: other elastase-inhibiting proteins in the prior art; read-out: inhibition constant; cited from earlier work
T4 sequence (P08246 30-267): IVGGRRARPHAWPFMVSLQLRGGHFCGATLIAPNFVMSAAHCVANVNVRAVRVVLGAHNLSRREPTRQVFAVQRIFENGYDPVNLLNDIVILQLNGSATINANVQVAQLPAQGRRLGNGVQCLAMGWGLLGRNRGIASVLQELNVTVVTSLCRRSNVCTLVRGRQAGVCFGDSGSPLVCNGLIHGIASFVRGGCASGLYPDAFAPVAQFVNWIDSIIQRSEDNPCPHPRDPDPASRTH

factor Xa, sequence (P00742 235-488 limits assumed): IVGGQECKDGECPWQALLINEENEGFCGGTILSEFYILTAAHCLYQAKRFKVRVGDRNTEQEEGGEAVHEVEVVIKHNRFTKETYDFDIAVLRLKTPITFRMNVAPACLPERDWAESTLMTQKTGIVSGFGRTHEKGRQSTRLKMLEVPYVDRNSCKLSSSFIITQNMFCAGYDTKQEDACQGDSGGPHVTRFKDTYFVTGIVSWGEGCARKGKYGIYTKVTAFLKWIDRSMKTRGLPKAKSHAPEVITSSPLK
pepsin, sequence (P0DJD8 63-388): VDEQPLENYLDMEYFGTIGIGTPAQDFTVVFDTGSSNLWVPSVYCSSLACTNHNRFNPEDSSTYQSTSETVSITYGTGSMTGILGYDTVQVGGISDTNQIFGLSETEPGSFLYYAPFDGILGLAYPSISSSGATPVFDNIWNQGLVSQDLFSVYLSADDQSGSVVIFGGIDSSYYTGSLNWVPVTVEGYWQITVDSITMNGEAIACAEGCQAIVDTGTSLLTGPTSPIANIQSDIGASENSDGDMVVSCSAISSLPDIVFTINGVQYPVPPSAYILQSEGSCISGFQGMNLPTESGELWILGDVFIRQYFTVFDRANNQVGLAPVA

Substance	effect on pepsin (pepsin)	effect on papain (papain)	effect on factor Xa (factor Xa)	inhibiting-activity against trypsin (trypsin)	inhibiting-activity against subtilisin (subtilisin)	inhibiting activity on elastase (elastase [1])	inhibiting-activity against chymotrypsin (chymotrypsin)	change in activity after heating [2]	Specific activity (elastase [3]) [units/mg]	mechanism of elastase inhibition (elastase [4])	effect on thrombin (thrombin)	Ki (elastase [5]) [nM]
Guamerin: novel elastase-inhibiting protein isolated from a Korean leech, Guameri (Hirudo nipponia); 57 amino acids, 6,110 Da (VDENAEDTHGLCGEKTCSPAQVCLNNECACTAIRCMIFCPNGFKVDENGCEYPCTCA)	no effect	no effect	no effect	about 15%	about 15%	about 90%	about 15%	quite stable; also recorded: no change	361	competitive inhibition	no effect	–
elafin: elastase-inhibiting protein in the prior art, printed as isolated from european leeches (AQEPVKGPVSTKPGSCPIILIRCAMLNPPNRCLKDTDCPGIKKCCEGSCGMACFVPQ; UniProt P19957 61-117, looked up)	–	–	–	–	–	–	–	–	–	–	–	0.6
